Results taken from the nanobody polyreactivity screen of Harvey et al. (2022).

Experiment: yeast display, Sf9 membrane polyspecificity reagent, FACS + sequencing; frameworks hold sequencing errors
Summary of the method: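 Galactose-induced (36–48 hours) yeast carrying a synthetic nanobody display library were exposed to 10% biotinylated, detergent-solubilized Sf9 membrane reagent at 4 °C for 1 hour. FACS followed streptavidin microbead enrichment, using low and high (top ~1%) gates for expression (anti-HA) and reagent binding (streptavidin). Colony PCR, MiSeq 2 × 250 sequencing and CDR-length filtering followed. Labels for polyreactivity reflect the gate of origin.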

| Sequence | polyreactivity (PSR sort gate) |
| --- | --- |
| QVQLVETGGGLVQAGGSLRLSCAASGRTFWGHAMGWYRQAPRKERELVASISSRGSSTYYADSVKGRFTISRDNAKNTVYLQMNSLKPEDTAVYYCAARTHYFPWPWYVWDYDSWGQGTQVTVSS | low polyreactivity |
| QVQLVETGGGLVQAGGSLRLSCAASGSIFVRKAMGWYRQAPGKERELVATISYRGASTYYADSVKGRFTISRDNAKNTVYLQLNCLKPEDTAVYYCNAPRFVGLNVYGYDYWGQGTQVTLSS | high polyreactivity |
| QVQLVETGGGLVQAGGSLRLSCAASGSIFVYHAMGGYRQAPGKETEFVAVISNSGSRTYYADSVKGRFTISRDNAKNTVYLQMNSLKPEDTAVYYCAARYYYFQRAYDYWGQGTQVTVSS | high polyreactivity |
| QVQLVETGGGLVQAGGSLRLSCAASGSIFYYNTMGWYRQAPGKERELVAAISRSGTSTFYADSVKGRFTISRHNAKNTVYLQMNSLKPEDTAVYYCNAESLGWYRLYTVDYWGQGTQVTVSS | low polyreactivity |
| QVQLVETGGGLVQAGGSLRLSCAASGSTFGYNGMGWYRQAPGKERELVAAISGGARTYADSVKGRFTISRDNAKNTVYLQMNSLIPEDTAVYYCAADSPVSVTADDGYWGLGTQVTVSS | low polyreactivity |
| QVQLVETGGGLVQAGGSLRLSCAASGSTFVWYDMGRYRQAPGKERELVATITSGGITTYADSVKGRFTISRDNAKNTVYLKMNSLKPEDTAVYYCNADLYYWLRYYDRNDYLGQGTQVTVSS | low polyreactivity |
| QVQLVETGGGLVQAGGSLRLSCAASGSTFYDNAMGWYRQAPGKERELVAAITRSGTRTYYADSVKGRFTISRDNAKNTVYLQMNSLKPEDTAVYYCNVVLYSYVTYRIITHGTYGYWGQGTQVTVSS | high polyreactivity |
| QVQLVETGGGLVQAGGSLRLSCAASGTIFTNYTMGWYRQAPGKERELVASISWSGGRTYYADSVKGRFTISRDNAKNTVYLQMNSLKPEDTAVYYCAAVSRAPGLRYDYWGQGTQVTVSS | high polyreactivity |
| QVQLVETGGGLVQAGGSLRLSCAASGYTLPANGKGWYRQAPGKDRELVAAISFIAGSTYYADSVNGRFTISRDNAKNTVYLQMNSLKPEDTAGYYCATQFPRSTIYDYWGQGTQVTVSS | low polyreactivity |
| QVQLVETGGGLVQAGGSLRLSCAASVRTFHGYAMGWYRQAPGKERELVAAITCTGGRTYYADSVKGRFTISRDNAKNTVYLQMNSLKPEDTAVYYCGARPWIKSGYCGQGTQVTVSS | high polyreactivity |
| QVQLVETGGGLVQAGGSLRLSCASSGFTLRVNDMGWYRQAPGKERELVAGITVSGGSTYYADSVKVRFTISRDNAKNTVYLQMNSLKPEDTAVYYCNADNYENATVMDYWGQGTQVTVSS | low polyreactivity |
| QVQLVETGGGLVQAGGSLRLSCDASGRIIRWYALGWYRQAPGKERELDAAITRSGSTFYADSVKWRFTISRDNAKNTVYLQMNSLKREDTADYYCNTCRWLYDTRYQFDEFDYWGQGTQVTVSS | high polyreactivity |
| QVQLVETGGGLVQAGGSLRLSSAASGITSNSYAMGWYRQAPGKERELVATITSGGSTNYADSVKGRFTITLDNAKNSVYLQMNSLKPEDTAVYYCNREYWLPTQYDYWGQGTQVTVSS | low polyreactivity |
| QVQLVETGGGLVQAGGSLRLSSAASGSILEGYAMGWYRQAPGKERELVPAISRSGGSTYYADSVKGRFTISRDNAKNTVYLQMKSLKPEDTAVYYCAARYRLDGTHLTGYAYYSWGQGTQGTVSS | high polyreactivity |
| QVQLVETGGGLVQAGGSLSLSCAASGRTCRFYAMGWYRQAPGKERELVGAISWNGGRTYYADSVKGRFTISRDNAKNSVYLQMNSLKPEDTAVYFCNARAYGSRKFEYWGQGTQVTVSS | high polyreactivity |
| QVQLVETGGGLVQAGGSRRVSCAASGFIFWWYPMGWYRQSPGKERELVAAISGRGGSTYYADSVKRRFTISRDNAKNTVYLQMNSQKPEDTAVYYCAARLPWSYYRTQGYNYGGQGTQVTVSS | high polyreactivity |
| QVQLVETGGGLVQAGVSLRLSSAASGLTYTQYALGWYRQAPGKERELVAAITSGGRRYYADSVKGRFTISRDNAKNTVYLQMNSLKPEDTAVYYCAVRGWCSARGMDYWGQGTQVTVSS | high polyreactivity |
| QVQLVETGGGLVQARGSLRLSCAASGRIFRRYAMGWYRQAPGKERELVAAISSGGSTDYADSVKGRFTISRDNAKNTVYLQMNSLKPEDTAVYYCARRGPYYNVGLFDSWGQGTQVTVSS | low polyreactivity |
| QVQLVETGGGLVQARGSLRLSCAASVRIFYYNAMGWYRQSPGKERELVAAITRSGSTNYAESVKGRFTISRDNAKNTVYLKMNSLKPEDTAVYYCAADSLKRYDYWGQGTQVTVSS | low polyreactivity |
| QVQLVETGGGLVQARGSLRLSSAASGIIFYRYAMGWYRQAPGKETDFVAAISWSGGSTTYADSVKGRFTISRDNAKNTVYLQMNSLKPVDTAVYYCNAERKYWSLWGPAYDYWGQGTQVTVSS | high polyreactivity |
| QVQLVETGGRIVQAGGSLRLSCAASGRIMDTNAMGWYRQAPGKEREFVAAITWIDGSTYYADSVKGRFTISRDNATNTVYLQMNSLKPEDTAVYYWNVQYTVDRYPSPPYSETGDYWGQGTQVTVSS | low polyreactivity |
| QVQLVETRGGLLQAGGSLRLSCDASGRTFAYYAMGRYRQAPGKESELVAAITYSDGSTYYADSVKGRFTISRDNAKNTFYLQMNSLKPEDPSVYYCAKGLSREEPENDYDYWGQGTQVTVSS | low polyreactivity |

| Sequence | polyreactivity (PSR sort gate) |
| --- | --- |
| QVQLVETVGGLVQAGGSLRLSCAASGIIFKRYPLGGYRQAPGKERELVAAITNRGGTYYADSVKGRFTISRDNEKNSVYLQMYSLKPEDTAVYYFAARYYWIDFKFGGPRDYWGQGTQVTVSS | high polyreactivity |
| QVQLVEYGGGLVQAGGSLRLSCAASGIIFKVYAMGWYRQAPGKEMELVAAISWSGGTTYYADSVKWRFTISRDNAKNTVYLQMNSLKPEDTAVYYCNAVVRVRFRKNDYWGQGTQVTVSS | high polyreactivity |
| QVQLVGSGGGLVQAGGSLRLSCAASGSTFGYYAMGWYRQAPGKERELVAAITKSGGSTFYADSVKGRFTISRDNAKNTVYLQMNSLKPEDTAVYYCAARYKGQYYRQGRHDFWGQGTQVTVSS | high polyreactivity |
| QVQLVQAGGGLVQAGGILRLSCAASGRIFRLYTMGWYRQAPGKERELVAAINSSGGNTYYADSVKGRFTISRDNAKNNVNLQMNSLKPEDTAVYYCAAGWSYPVRNIYYDWGQGTQVTVSS | high polyreactivity |
| QVQLVQSAGGLVQAGGSLRLSCAASGSILSINGMGSYRQAPGKERELVATIDGSDGSTFYADSVKGRLTISRDNAKNTVYFQMNSLKPEDTAVYYCAAENLWQTKEYDYWGLGTQVTVSS | low polyreactivity |
| QVQLVQSCGCLVQAGGSLRLSCAASGRIFYGNDMGWNRQAPGKERDLVAAISSGTSTNYADSVKGRFTISRDNAMNTVYLQMNSLKPEVTAVYYWAAGSYSRYLYSLYFDFDYWGQGSQVTVSS | low polyreactivity |
| QVQLVQSGAGLVQARGSLRLSCAASGSTFRRNVMGWYRQAPGTERELVAAISWSGTSTNYADSVKWRFTISRDNAKNTVYLQMNSLKPEDTAVYYCATQSLYYRWGLDYWGQGTQVTVSS | high polyreactivity |
| QVQLVQSGGGLVHAGGSLRLSCAASGGTFQRYVMGWYRQAPGKERELVAAISRSGSTYADSVKGRFTISRDNAKNTVYLEMNSLKPEDTAVYYCNTVYPGRDYCKFGYWGQGTQVTVSS | high polyreactivity |
| QVQLVQSGGGLVQAGASLRLSCAASGSTFWKYAMGWYRQAPGQERELVASIRSGGSTYYADSVKGRFTISRDNAKNTVYLQMNSLIPEDTAVYYCAAVTHGRYDWVQGTQVTVSS | high polyreactivity |
| QVQLVQSGGGLVQAGGILRLSCAASGRTFSTNAMGRYIQAPGKERQLVAAITYGSSSTYYADSVKGRFTISRDNAKNTVYFKMNCLKPEDTAVYDCAAGGFFTHRRTYGYWGQGTQVTVSS | high polyreactivity |
| QVQLVQSGGGLVQAGGSLRLSCAASGFIFDTYTMGWYRQAPGKERQLVAAISRSGASTYYADSVKGRFTISRDNAKNTVYLQMNSLKPEDTAVYYCATVYYPSYRGGYDYWGQGTQVTVSS | high polyreactivity |
| QVQLVQSGGGLVQAGGSLRLSCAASGITFEYNTMGWYRQAPGKERELVAAITQGGGTTNYADSVKGRFTISRDNAKNTVYLQMNSLKPEDTAVYYCAAFVGYLLLYYPTYYYWGQGTEVTVSS | low polyreactivity |
| QVQLVQSGGGLVQAGGSLRLSCAASGLIFRYYTMGWYRQAPGKERELVAAISSGGSTRYADSVKGRFTISRDNAKNTVYLQMNSLKPEDTAVYYCAAKLYYYVQGRYNYWGQGTQVTVSS | high polyreactivity |
| QVQLVQSGGGLVQAGGSLRLSCAASGLIFTTNPMGWYRQAPGKERQFVAAISPSGGSTYYADSVKGRFTISRDNAKNTVYLQMNCLKPEDTAVYSCGARYSPVWHKYYYWGQGTQVTVSS | high polyreactivity |
| QVQLVQSGGGLVQAGGSLRLSCAASGRIFGLNTMGWYRQAPGKERELVAAITSSAGSTYYADSVKGRFPISRDNAKNTVSLQMNSLKPEDTAVYYCAARVSYLGSFTSQRYYYWGQGTQVTVSS | high polyreactivity |
| QVQLVQSGGGLVQAGGSLRLSCAASGRTFYYYPMGWYRPAPGKERELVAAIRWRGGRTYADSVKGRFTISRDNAKNTVYLQMNSLKPEDTAVYYCAVESFYRHASLYDYWGQGTQVTVSS | high polyreactivity |
| QVQLVQSGGGLVQAGGSLRLSCAASGSIFGYYAKGWNRQAPGKERQLVAAIDSRGGSTYYADSVKGRFTISRDNEKNTVYLQMNSLKTEDTAVYYCAARLRYPRRGQGDNYRGQGTQVTVSS | low polyreactivity |
| QVQLVQSGGGLVQAGGSLRLSCAASGSTFLSKAMGWYRQAPWKERQLVAAITTSGTSTFYADSVKGRFTISRDNAKNTVYLQMNSLKPADTAVYCAKDYLPYLHFVAPSTGDYDYWGQGTQVTVSS | low polyreactivity |
| QVQLVQSGGGLVQAGGSLRLSCAASGSTFRIYAMGWYRQAPGKEREFVAAISDRGGRTYYADSVKGRFTISRDNAKNTVYLQMNSLKPEDTAVYYCAAVKLLSSAPGDDCQMNYWGQGTQVTVSS | low polyreactivity |
| QVQLVQSGGGLVQAGGSLRLSCAASGSTFYQYAMGWYRQSPGKERELVAAISRSGSTNYADSVKGRFTHSRDNAQNTVYLQMNSMKPEDSAVYYCAARLGTRQYKMDYWGQGTQVTVSS | high polyreactivity |
| QVQLVQSGGGLVQAGGSLRLSCAASGTTFRIYAMGWYRQAPGKEREFVAAISDRGGRTYYADSVKGRFTISRDNAKNTVYLQMNSLKPEDTAVYYCAAVKLLSSAPGDDGKMNYWGQGTQVTVSS | low polyreactivity |
